No end group written: not given here.

Assay [1] concerns the target T1, PDZ domain of ARHGEF12 (MBP-PDZ) (human, UniProt Q9NZN5 72-151).
T1 sequence: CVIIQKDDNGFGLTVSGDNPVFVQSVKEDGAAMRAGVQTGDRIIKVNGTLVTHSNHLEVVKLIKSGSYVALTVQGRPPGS
Kind of assay: ITC. (ITC needs no label: the signal is the heat of the interaction.)

Assay [2] concerns the target T2, PDZ domain of SYNJ2BP (MBP-PDZ) (human, UniProt P57105 13-100).
T2 sequence: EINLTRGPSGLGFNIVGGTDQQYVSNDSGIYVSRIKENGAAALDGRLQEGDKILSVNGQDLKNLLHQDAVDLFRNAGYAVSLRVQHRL
Nature of the assay: ITC.

B1: unphosphorylated RSK1 683-735 peptide (peptide)
peptide: QSQLSHQDLQLVKGAMAATYSALNSSKPTPQLKPIESSILAQRRVRKLPSTTL
On to B1, for which the binding result in assay [1] and in assay [2] was “binds” throughout.

B2: phosphorylated RSK1 683-735 peptide (peptide)
peptide: QSQLSHQDLQLVKGAMAATYSALNSSKPTPQLKPIESSILAQRRVRKLPSTTL
modifications: also: phosphorylated, sites not given here
On to B2, for which the binding result in assay [2] is given as “binds”.

Source of the values: publication doi:10.1101/419721 (bioRxiv, 2018).
